Reference: patent US12048734B2, “Bioactive peptides and methods of use thereof” (OP-T LLC, priority 2020, dated 2024)

Test system: CD4loCD40+ T cells (Th40 cells)
Test: Cytokine production of CD40- or CD3-stimulated Th40 cells with galectin-9
Assay type: cell-based, NOD mice
Conditions: 3 days; indicated concentrations of galectin-9
Description: CD4loCD40+ T cells (Th40 cells) were sorted from 7-20 weeks old female NOD spleens. Cells were either isotype treated, CD40- or CD3-stimulated in the absence/presence of indicated concentrations of galectin-9 (gal-9; mg/ml) for 3 days then cytokines were measured. Bar graphs depict means with SEM. Asterisks denote significant differences determined by one-way Anova; *-P between 0.01 and 0.05; **-P, 0.01; ***-P, 0.001. Measurements were done on four individual mice of different ages.

B1: galectin-9: galectin-9 protein added to Th40 cell cultures (protein, UniProt O00182 1-355, looked up)
Galectin-9: MAFSGSQAPYLSPAVPFSGTIQGGLQDGLQITVNGTVLSSSGTRFAVNFQTGFSGNDIAFHFNPRFEDGGYVVCNTRQNGSWGPEERKTHMPFQKGMPFDLCFLVQSSDFKVMVNGILFVQYFHRVPFHRVDTISVNGSVQLSYISFQNPRTVPVQPAFSTVPFSQPVCFPPRPRGRRQKPPGVWPANPAPITQTVIHTVQSAPGQMFSTPAIPPMMYPHPAYPMPFITTILGGLYPSKSILLSGTVLPSAQRFHINLCSGNHIAFHLNPRFDENAVVRNTQIDNSWGSEERSLPRKMPFVRGQSFSVWILCEAHCLKVAVDGQHLFEYYHRLRNLPTINRLEVGGDIQLTHVQT
How did the “CD40 and CD3 induced cytokine production level” value turn out when B1 was run?
The value was “alters the production level”.
